Data on six molecules can be found in patent US12460006B2, “Antibodies against integrin alpha 11 beta 1” (Momenta Pharmaceuticals, Inc., priority 2019, dated 2025).

“Also recorded” adds a separate entry of the source.

To fix the notation:
T1: α11β1 expressed on the surface of CHO-K1 cells (Homo sapiens, UniProt Q9UKX5)
T1 construct: expressed in transfected cells; host or cells: CHO-K1
T1 sequence (Q9UKX5 23-1188): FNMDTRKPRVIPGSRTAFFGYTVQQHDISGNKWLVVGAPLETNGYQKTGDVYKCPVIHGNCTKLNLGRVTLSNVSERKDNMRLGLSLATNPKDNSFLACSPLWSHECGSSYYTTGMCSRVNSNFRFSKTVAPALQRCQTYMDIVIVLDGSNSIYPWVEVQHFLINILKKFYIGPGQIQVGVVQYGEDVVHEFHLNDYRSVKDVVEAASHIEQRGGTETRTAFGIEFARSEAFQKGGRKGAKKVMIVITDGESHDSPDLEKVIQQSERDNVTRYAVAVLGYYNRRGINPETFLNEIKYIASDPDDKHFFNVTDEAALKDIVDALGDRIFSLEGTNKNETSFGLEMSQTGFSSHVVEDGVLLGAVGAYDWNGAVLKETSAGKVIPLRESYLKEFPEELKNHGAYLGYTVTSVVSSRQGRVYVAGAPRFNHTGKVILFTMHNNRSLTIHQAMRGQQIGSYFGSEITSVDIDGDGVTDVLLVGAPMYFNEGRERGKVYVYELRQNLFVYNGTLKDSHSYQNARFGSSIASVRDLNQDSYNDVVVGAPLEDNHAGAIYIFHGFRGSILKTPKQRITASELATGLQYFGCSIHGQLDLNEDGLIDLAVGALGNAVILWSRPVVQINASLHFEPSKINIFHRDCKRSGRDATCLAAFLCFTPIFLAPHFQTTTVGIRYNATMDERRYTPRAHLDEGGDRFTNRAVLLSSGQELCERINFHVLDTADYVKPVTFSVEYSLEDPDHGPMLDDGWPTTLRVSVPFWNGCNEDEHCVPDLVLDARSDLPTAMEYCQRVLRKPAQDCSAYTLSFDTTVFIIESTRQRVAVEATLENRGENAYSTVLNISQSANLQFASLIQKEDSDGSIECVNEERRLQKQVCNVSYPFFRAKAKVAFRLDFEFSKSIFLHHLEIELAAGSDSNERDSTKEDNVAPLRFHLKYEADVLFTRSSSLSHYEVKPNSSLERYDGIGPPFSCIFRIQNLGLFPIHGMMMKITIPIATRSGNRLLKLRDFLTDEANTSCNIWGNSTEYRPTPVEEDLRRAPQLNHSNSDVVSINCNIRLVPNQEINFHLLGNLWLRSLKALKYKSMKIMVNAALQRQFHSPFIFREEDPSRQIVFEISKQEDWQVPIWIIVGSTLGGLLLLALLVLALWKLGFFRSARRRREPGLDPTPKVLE

B1: 40G10H11: rat anti-α11β1 mAb; VH SEQ ID NO: 157, VL SEQ ID NO: 158 (antibody, V domains shown)
VH: MDIRLSLGFLVLFIKGDQCAVQLVESGGGLVQPGRSLKLSCAASRITFTDYYMAWVRQAPTKGLEWVATISSDGGDTFYRDSVKGRFTISRDNAKSTLYLQMVSLRSEDTATYYCSTDRGAQFGYWGQGTLVTVSS
VL: MAPVQLLGLLLIWLPAMRCDIQMTQSPSFLSASVGDRVSINCKASQNVHENLNWYQQKLGEAPKRLIYNTNNLQTGIPSRFSGSGSGADYTLTISSLQPEDFATYFCLQHNAFPYTFGPGTKLELK
B2: 16E10: rabbit anti-α11β1 mAb; heavy chain SEQ ID NO: 161, light chain SEQ ID NO: 162 (antibody)
heavy: METGLRWLLLVAVLKGVQCQSLEESGGDLVKPGASLTLTCRVSGFSFSSSYYMCWVRQAPGKGLEWIACIGTTRGSTYYATWAKGRFTISKISSTTVTLQMTSLTDADTATYFCARDATGYRINTIGLYFNLWGPGTLVTVSSGQPKAPSVFPLAPCCGDTPSSTVTLGCLVKGYLPEPVTVTWNSGTLTNGVRTFPSVRQSSGLYSLSSVVSVTSSSQPVTCNVAHPATNTKVDKTVAPSTCSKPMCPPPELPGGPSVFIFPPKPKDTLMISRTPEVTCVVVDVSQDDPEVQFTWYINNEQVRTARPPLREQQFNSTIRVVSTLPIAHQDWLRGKEFKCKVHNKALPAPIEKTISKARGQPLEPKVYTMGPPREELSSRSVSLTCMINGFYPSDISVEWEKNGKAEDNYKTTPTVLDSDGSYFLYSKLSVPTSEWQRGDVFTCSVMHEALHNHYTQKSISRSPGK
light: MDTRAPTQLLGLLLLWLPGARCAFELTQTPSSVEAAVGGTPTIKCQASQTIYSYLSWYQQKPGQPPKLLIYEASKLASGVPSRFSGSGSGTDYTLTISDLECADAATYYCQSYHGTASTEYNTFGGGTEVVVRGDPVAPTVLIFPPAADQVATGTVTIVCVANKYFPDVTVTWEVDGTTQTTGIENSKTPQNSADCTYNLSSTLTLTSTQYNSHKEYTCKVTQGTTSVVQSFNRGDC
B3: 16G7: rabbit anti-α11β1 mAb; heavy chain SEQ ID NO: 159, light chain SEQ ID NO: 160 (antibody)
heavy: METGLRWLLLVAVFKGVQCQEQLVESGGDLVKPGASLTLTCTASGFSFNKNYWMCWVRQAPGKGLEWIGCIYNGDGNTYYASWVNGRFTISKTSSTTVTLQMTSLTVADTAIYFCARLLNMWGPGTLVTVSSGQPKAPSVFPLAPCCGDTPSSTVTLGCLVKGYLPEPVTVTWNSGTLTNGVRTFPSVRQSSGLYSLSSVVSVTSSSQPVTCNVAHPATNTKVDKTVAPSTCSKPMCPPPELPGGPSVFIFPPKPKDTLMISRTPEVTCVVVDVSQDDPEVQFTWYINNEQVRTARPPLREQQFNSTIRVVSTLPIAHQDWLRGKEFKCKVHNKALPAPIEKTISKARGQPLEPKVYTMGPPREELSSRSVSLTCMINGFYPSDISVEWEKNGKAEDNYKTTPTVLDSDGSYFLYSKLSVPTSEWQRGDVFTCSVMHEALHNHYTQKSISRSPGK
light: MDTRAPTQLLGLLLLWLPGARCADIVMTQTPASVEAAVGGTVTIKCQASESIGNALAWYQQKPGQPPKLLIYTAATLASGVPSRFSGSGSGTEFTLTISGVQCDDAATYYCQSYYFTSVSSYGNAFGGGTEVVVKGDPVAPTVLIFPPAADQVATGTVTIVCVANKYFPDVTVTWEVDGTTQTTGIENSKTPQNSADCTYNLSSTLTLTSTQYNSHKEYTCKVTQGTTSVVQSFNRGDC
B4: 24E4G6: rat anti-α11β1 mAb; VH SEQ ID NO: 147, VL SEQ ID NO: 148 (antibody, V domains shown)
VH: MELELSLIFIFSLLKDVQCEVQLVESGGSLVQPGGSLKLSCVASGYTFSNYWMDWVRQSPGKSLEWIGEINTDGRRTNYAPSIKDRFTISRDNAKSTLYLQMSNVKSDDTAIYYCTILRVYPHYFDYWGQGVMVTVSS
VL: MMSPAQFLFLLMLWIQEARGDVVMTQTPPSLSVAIGQSVSISCKSSQSLVYSDGETYLHWFLQSPGRSPKRLIYHVSNLGSGVPDRFSGTGSLTDFTLRISRVEAEDLGVYYCAQTTHFPPTFGAGTKLELK
B5: 3-G5: mouse anti-α11β1 mAb; VH SEQ ID NO: 135, VL SEQ ID NO: 136 (antibody, V domains shown)
VH: QVQLQQSGAELARPGASVKLSCKASGYTFTSYGISWVKQRTGQGLEWIGEIFPRSSNTYYNEKFKGKATLTADKSSSTVYMEFRSLTSEDSAVYFCAREGGLAWFAYWGQGTLVTVSA
VL: DVVMTQTPLTLSVTIGQPASISCKSSQSLLYTNGNTYLNWLLQRPGQSPKRLIYLVSKLDSGIPDRFSGSGSGTDFTLRISRVEAEDLGVYYCLQSTHFPFTFGSGTKLEIK
B6: 10-F23: mouse anti-α11β1 mAb; VH SEQ ID NO: 125, VL SEQ ID NO: 126 (antibody, V domains shown)
VH: QVTLKESGPGILQPSQTLSLTCSFSGFSLSTFAMGVGWIRQPSGKGLEWLAHIWWDDDKYYNPALKSRLTISKDTSKNHVFLKIANVDTADTATYYCARMPLTFYFDYWGQGTTLTVSS
VL: DVLLTQTPLSLPVSLGDQASISCRSSQSIVHSNGHTYLEWYLQKPGQSPKLLIYKVSNRFSGVPDRFSGSGSGTDFTLKISRVEAEDLGVYYCFQGSHVPFTFGGGTKLEIK

Chain of human α11β1 (P05556 21-728 partner limits assumed, one chain of several): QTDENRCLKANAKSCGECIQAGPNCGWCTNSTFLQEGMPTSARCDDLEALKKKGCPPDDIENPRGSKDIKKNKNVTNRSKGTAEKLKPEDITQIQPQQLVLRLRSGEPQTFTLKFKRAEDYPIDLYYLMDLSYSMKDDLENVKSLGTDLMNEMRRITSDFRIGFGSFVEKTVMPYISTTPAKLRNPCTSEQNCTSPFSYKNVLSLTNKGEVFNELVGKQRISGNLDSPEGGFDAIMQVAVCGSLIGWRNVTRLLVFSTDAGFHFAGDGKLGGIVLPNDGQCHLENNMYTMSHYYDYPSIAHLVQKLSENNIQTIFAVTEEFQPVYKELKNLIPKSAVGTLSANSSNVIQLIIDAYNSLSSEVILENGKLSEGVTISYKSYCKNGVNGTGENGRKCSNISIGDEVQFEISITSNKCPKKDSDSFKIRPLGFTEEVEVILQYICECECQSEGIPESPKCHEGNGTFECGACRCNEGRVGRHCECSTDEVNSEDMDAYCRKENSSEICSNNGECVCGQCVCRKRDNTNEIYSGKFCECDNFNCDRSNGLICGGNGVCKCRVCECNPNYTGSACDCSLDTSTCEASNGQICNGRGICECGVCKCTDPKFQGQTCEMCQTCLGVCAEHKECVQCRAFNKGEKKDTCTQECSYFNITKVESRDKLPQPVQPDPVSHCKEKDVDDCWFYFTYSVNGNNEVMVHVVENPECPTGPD

The subject of one experiment is CHO-K1 cells expressing human α11. Nature of the experiment: Cell adhesion inhibition (xCelligence), type I collagen. It counts as cell-based. To be noted: CHO-K1 hu α11 cells. The method, then:
0.6×10^6 cells/mL were incubated with each antibody at a range of concentrations for 20 minutes at 37° C. E-Plate VIEW 96 PET plate coated with 100 ng/mL type I collagen or PBS overnight at room temperature was blocked in 3% BSA for 1 house at room temperature. After washing the plate with PBS, cell and antibody mixture was added to the wells and the plate was places into an xCelligence machine. Cell adhesion was recorded over 6 hours. The time point of maximum cell adhesion was used for comparison relative to control.
A CHO-K1 hu α11 cell line was used to assess the ability of mAbs to block α11β1-mediated binding to type I collagen. […] In the “Untreated” condition, cells were plated on type I collagen but no antibody was added and in the “Uncoated” condition, cells were seeded onto BSA-coated wells containing no type I collagen. Statistics were performed using one-way ANOVA followed by Dunnett's multiple comparisons test. […] Therefore, it is possible that these mAbs bind on an α11β1 domain that keeps the integrin in a low or intermediate affinity state. […] Nine human mAbs were also tested for their ability to inhibit the binding of human CHO-α11 cells to type I collagen.
For the molecule B1, the “inhibition of cell adhesion to type I collagen” value (“inhibition of cell adhesion” for short) is reported as “strongly inhibited cell adhesion; also recorded: inhibited cell adhesion”.
For the molecule B2, the “inhibition of cell adhesion” value was “inhibit both ligand binding and FMT”.
The same measure, in the same setting: to B3 belongs “didn't have an effect on cell adhesion”.
Regarding B4, the “inhibition of cell adhesion” value is “nor did it inhibit cell adhesion”.

The same experiment, now with this note: Yes/No.
With B1, the “Inhibition of CHO-K1 adhesion to collagen” value was “Yes”.
Same read-out and setting: to B2 belongs “Yes”; to B3, “No”; to B5, “No”.
On the same count and under the same terms, to B6 belongs “Yes”.
Same read-out and setting: to B4 belongs “No”.

Another experiment deals with human α11β1 (Homo sapiens, UniProt Q9UKX5). Put plainly: ELISA binding to recombinant human α11β1. To be noted: binding Yes/No. The method, then:
0.25 μg/mL of target antigen (recombinant human or mouse α11β1) was plated in a 96-well plate over night at 4° C. Plates were washed (PBS with 0.1% Tween-20), blocked (PBS with 2% BSA and 0.05% Tween-20) for 1 hour at room temperature and incubated with a range of antibody concentrations for 1 hour at room temperature. Subsequently, plates were washed and incubated with biotinylated anti-rabbit/mouse/human IgG in a 1:1000 dilution buffer and incubated for 1 hour at room temperature. After washing the plates, Streptavidin HRP was added at 1:200 in dilution buffer and incubated for 1 hour at room temperature. Ultra TMB ELISA substrate solution was added and the plates incubated for 5 minutes on a plate shaker. The reaction was stopped by adding stop solution to each well and plates were read at 450 nm.
(An ELISA detects its analyte on a solid surface through an enzyme-linked reagent.)
Regarding B1, the “Human α11β1 ELISA” value is given as “Yes”.
For B2, the “Human α11β1 ELISA” value is given as “Yes”.
The same measure, in the same setting: to B3 belongs “Yes”.
Still for that read-out and setting: for B5 the value was “Yes”; for B6, “Yes”; for B4, “Yes”.

The target of the next experiment is T1, α11β1 expressed on the surface of CHO-K1 cells. Put plainly: FACS antibody binding to CHO-K1 cells expressing human α11. To be noted: binding Yes/No. As for the experimental part: 200,000 cells (wild-type CHO-K1 cells or CHO-K1 cells expressing human α11) were incubated with each antibody at desired concentrations in FACS buffer for 30 min at 4° C. Then, the cells were washed with FACS buffer and incubated with secondary antibody at 1:100 dilution for 30 minutes at 4° C. Cells were then washed and fixed with 1% PFA in PBS for 20 minutes at room temperature; washed again and read on a cytometer in FACS buffer.
Since integrins are large, transmembrane receptors that exist in different conformational shapes, experiments were performed to confirm that the novel antibodies also bound cell-expressed α11β1. A CHO-K1 cell line that endogenously expressed high levels of the β1 subunit was engineered to stably express human α11 (CHO-K1 hu α11).
Binding EC50 was estimated using data from Fluorescence-activated cell sorting (FACS) performed with CHO-K1 hu α11β1 cells.
Regarding B1, the “CHO-K1 FACS” value is “Yes”.
The same measure, in the same setting: to B2 belongs “Yes”; to B3, “Yes”; to B5, “No”.
On the same count and under the same terms, to B6 belongs “Yes”; to B4, “Yes”.
